Test results from patent US20030114404.

The sequences below were run on T1, VEGF, P15692-4 (assay: cell_activity). Conditions: NX278 (dialkylglycerol, 2'-NH2, 2'-OMe, PS) embedded in DSPC:cholesterol liposome; KSY-1 Kaposi's sarcoma cell proliferation; HUVEC IC50 about 300 nM (p159).
T1 sequence: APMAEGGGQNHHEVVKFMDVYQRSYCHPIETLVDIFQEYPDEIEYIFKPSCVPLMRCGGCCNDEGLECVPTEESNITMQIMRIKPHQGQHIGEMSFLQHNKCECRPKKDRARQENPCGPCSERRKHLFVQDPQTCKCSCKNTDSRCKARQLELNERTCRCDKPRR
In the case of “TTTTACCCUGAUGGUAGACGCCGGGGUGTTTTT [NX278-Liposome]”, the IC50 is reported as 100000 pM.

The sequences below were run on T2, VEGF165 (Homo sapiens), P15692-4 (assay: filter). Conditions: 2'-F pyrimidines; 37 C.
T2 sequence: T1 sequence
In the case of “GGGAGGACGAUGCGGAGAAUCAGUGAAUGCUUAUAAAUCUCGYGUCAGACGACUCGCCCGA [VT30.3]”, the Kd is reported as 5 pM. For “GGGAGGACGAUGCGGAYCAACCGAUUGACGUUAUGGGACGCUGGUCAGACGACUCGCCCGA [VP30.5]”, the Kd was 8 pM. For “GGGAGGACGAUGCGGCGGYACUUUGGAAGAAUUGAAUUUCCCGCUCAGACGACUCGCCCGA [VP30.26]”, the Kd was 10 pM. In the case of “GGGAGGACGAUGCGGUAGGAAGAAUUGGAAGCGCAUUUUCCUCGYCAGACGACUCGCCCGA [VP30.22]”, the Kd is reported as 20 pM. “GGGAGGACGAUGCGGYGAACCGAUGGAAUUUUUGGACGCUCGCCUCAGACGACUCGCCCGA [VP30.2]” was tested, and the Kd was 10 pM.
